biological target: HLA-A*24 (human); experiment: UV-exchange ELISA (anti-b2m); yield 50%-75%

Binder | peptide exchange yield
KYIFQLNEI | 50 to 75%
AYIPTPIYF | 50 to 75%
VYEKNGYIYF | 50 to 75%
VYPPYLNYL | 50 to 75%
YYLSDSPLL | 50 to 75%
IYNFVESKL | 50 to 75%
NYITGKGDVF | 50 to 75%
RYGFYYVEF | 50 to 75%
GYKTFFNEF | 50 to 75%
NYYERIHAL | 50 to 75%
PYFFANQEF | 50 to 75%
RYLEAALRL | 50 to 75%
KYFPYLVVI | 50 to 75%
IYNETITDLL | 50 to 75%
IYSFHTLSF | 50 to 75%
NYSSAVQKF | 50 to 75%
VYRVYVTTF | 50 to 75%
LYSELNKWSF | 50 to 75%
FYINGQYQF | 50 to 75%
VYALKVRTI | 50 to 75%
KYLQVVGMF | 50 to 75%
SYNGHLTIWF | 50 to 75%
VYQSLSNSL | 50 to 75%
RYGDGGSSF | 50 to 75%
IYPEWPVVFF | 50 to 75%

Binder | peptide exchange yield
VFSRDFGLLVF | 50 to 75%
IYRFITERF | 50 to 75%
EYLDRIGQLFF | 50 to 75%
SYPKIIEEF | 50 to 75%
VYPFENFEF | 50 to 75%
HYVPATKVF | 50 to 75%
RYGLPAAWSTF | 50 to 75%
IFGIFPNQF | 50 to 75%
IYQYVADNF | 50 to 75%
TYIPVGLGRLL | 50 to 75%
IYEETRGVL | 50 to 75%
RYVEGIVSL | 50 to 75%
KYLNSVQYI | 50 to 75%
PYLVVIHTL | 50 to 75%
KYLMELTLI | 50 to 75%
DYIPASGFALF | 50 to 75%
VFPRLHNVLF | 50 to 75%
EYQARIPEF | 50 to 75%
IYQFVADSF | 50 to 75%
TYGMVMVTF | 50 to 75%
NYEDHFPLL | 50 to 75%
AYIKGGWIL | 50 to 75%
LYLENNAQTQF | 50 to 75%
PYLQDVPRI | 50 to 75%
VYIESRIGTSTSF | 50 to 75%

Binder | peptide exchange yield
KYPDIVQQF | 50 to 75%
LYSDAFKFIVF | 50 to 75%
QYFTGNPLF | 50 to 75%
GYNPNRVFF | 50 to 75%
TYTNTLERL | 50 to 75%
LYSPVPFTL | 50 to 75%
NYIPVKNGKQF | 50 to 75%
EYFTPLLSGQF | 50 to 75%
LYSELTETL | 50 to 75%
KYLEDMKTYF | 50 to 75%
TYPDGTYTGRIF | 50 to 75%
SYLKAVFNL | 50 to 75%
SYLNHLNNL | 50 to 75%
EYLSTCSKL | 50 to 75%
FYVNVKEQF | 50 to 75%
IYLSDLTYI | 50 to 75%
VFIHHLPQF | 50 to 75%
VYVQILQKL | 50 to 75%
VYPVVLNQI | 50 to 75%
RYSTFSEIF | 50 to 75%
RYLNKSFVL | 50 to 75%
VYFKAGLDVF | 50 to 75%
QYLTAAALHNL | 50 to 75%
LYLAFPLAF | 50 to 75%
IYNETVRDLL | 50 to 75%
